Source: publication PMC7835374 (Nature Communications, 2021)

B1: 3I14 fragment antigen-binding region (Fab) (Fab, V domains shown)
VH: QVQLLESGGGVVQPGRSLRLSCAASGFTFSNYGMHWVRQAPGKGLEWVAIISFDGSKKYYANSVKGRSTISRDNSKNTLSLQMNSLGPEDTALYYCAKLPSPYYFDSRFVWVAASAFHFWGQGILVTVSS
VL: NFMLTQPPSASGTPGQRVTISCSGSSSNIGGNTVHWFQQLPGTAPKLLIYTNSLRPSGVPDRFSGSKSGTSASLAISGLQSEDEADYYCAAWDDSLNGQVFGGGTKLTVL
B2: 3I14^D93N Fab (Fab, V domains shown)
VH: B1 VH
VL: LTQPPSASGTPGQRVTISCSGSSSNIGGNTVHWFQQLPGTAPKLLIYTNSLRPSGVPDRFSGSKSGTSASLAISGLQSEDEADYYCAAWDNSLNGQVFGGGTKLTVL

Biological target: T1, hemagglutinin H3 (A/Victoria/361/2011), trypsin-cleaved HA1/HA2 trimer for crystallization (Influenza A virus A/Victoria/361/2011 …, UniProt A0A097PF39, strain, N-linked glycans (a group 2-specific sugar at position 38 of HA1))
T1 construct: copies: 3 + 3
Assay: crystal structure
Conditions: both partners purified

Binder | binding result
B1 | binds
B2 | binds
